From paper PMC5430804, “Structural and biochemical insights of CypA and AIF interaction” (Scientific Reports, 2017)

B1: CypA(55-69) + (67–79) + (49-62), three peptides tested in combination (other)
peptide 1: RIIPGFMCQGGDFTR
peptide 2: FTRHNGTGGKSIY
peptide 3: KGSCFHRIIPGFMC
notes: Cyclophilin A (CypA), residues 55-69; Cyclophilin A (CypA), residues 67-79; Cyclophilin A (CypA), residues 49-62; A mixture of separate peptides; source: synthetic peptides, combined; copies: + +
B2: CypA(121-131) + (83–90), two peptides tested in combination (other)
peptide 1: WLDGKHVVFGK
peptide 2: FEDENFIL
notes: Cyclophilin A (CypA), residues 83-90; A mixture of separate peptides; source: synthetic peptides, combined
B3: CypA(67-79) + (49–62), two peptides tested in combination (other)
peptide 1: FTRHNGTGGKSIY
peptide 2: KGSCFHRIIPGFMC
notes: Cyclophilin A (CypA), residues 67-79; Cyclophilin A (CypA), residues 49-62; A mixture of separate peptides; source: synthetic peptides, combined
B4: CypA(55-69) + (49–62), two peptides tested in combination (other)
peptide 1: RIIPGFMCQGGDFTR
peptide 2: KGSCFHRIIPGFMC
notes: Cyclophilin A (CypA), residues 55-69; Cyclophilin A (CypA), residues 49-62; A mixture of separate peptides; source: synthetic peptides, combined
B5: AIF(370-394) synthetic peptide (peptide, UniProt O95831 370-394, looked up)
peptide: QSVGVSSGKLLIKLKDGRKVETDHI
notes: also called AIF peptide; source: synthetic peptide
B6: CypA(55-69) + (67–79), two peptides tested in combination (other)
peptide 1: RIIPGFMCQGGDFTR
peptide 2: FTRHNGTGGKSIY
notes: Cyclophilin A (CypA), residues 55-69; Cyclophilin A (CypA), residues 67-79; A mixture of separate peptides; source: synthetic peptides, combined
B7: CypA(121-131) + (99–109) + (83-90), three peptides tested in combination (other)
peptide 1: WLDGKHVVFGK
peptide 2: SMANAGPNTNG
peptide 3: FEDENFIL
notes: Cyclophilin A (CypA), residues 99-109; Cyclophilin A (CypA), residues 83-90; A mixture of separate peptides; source: synthetic peptides, combined; copies: + +
B8: CypA(55-69) peptide with R69 replaced by alanine (peptide, UniProt P62937 55-69, looked up)
peptide: RIIPGFMCQGGDFTA
notes: Cyclophilin A (CypA), residues 55-69, R69 replaced by alanine; also called CypA(55-69)R69; source: synthetic peptide
B9: CypA(99-109) + (83–90), two peptides tested in combination (other)
peptide 1: SMANAGPNTNG
peptide 2: FEDENFIL
notes: Cyclophilin A (CypA), residues 99-109; Cyclophilin A (CypA), residues 83-90; A mixture of separate peptides; source: synthetic peptides, combined
B10: CypA(121-131) + (99–109), two peptides tested in combination (other)
peptide 1: WLDGKHVVFGK
peptide 2: SMANAGPNTNG
notes: Cyclophilin A (CypA), residues 99-109; A mixture of separate peptides; source: synthetic peptides, combined

How the values were obtained:
Settings in all cases: both partners purified
[1] = molecular target: B5; assay: EnSpire label-free direct binding assay; direct binding of CypA peptides, CypA or CypA R55A with AIF(370-394) or AIF(Δ1-121); details (who was immobilised) in the Supplementary Information
[2] = molecular target: T1, Apoptosis Inducing Factor, pro-apoptotic form AIF(Δ1-121) (UniProt O95831 122-613); assay: as above
T1 construct: also called apoptogenic form of AIF
T1 sequence (O95831 122-613, stated change not applied): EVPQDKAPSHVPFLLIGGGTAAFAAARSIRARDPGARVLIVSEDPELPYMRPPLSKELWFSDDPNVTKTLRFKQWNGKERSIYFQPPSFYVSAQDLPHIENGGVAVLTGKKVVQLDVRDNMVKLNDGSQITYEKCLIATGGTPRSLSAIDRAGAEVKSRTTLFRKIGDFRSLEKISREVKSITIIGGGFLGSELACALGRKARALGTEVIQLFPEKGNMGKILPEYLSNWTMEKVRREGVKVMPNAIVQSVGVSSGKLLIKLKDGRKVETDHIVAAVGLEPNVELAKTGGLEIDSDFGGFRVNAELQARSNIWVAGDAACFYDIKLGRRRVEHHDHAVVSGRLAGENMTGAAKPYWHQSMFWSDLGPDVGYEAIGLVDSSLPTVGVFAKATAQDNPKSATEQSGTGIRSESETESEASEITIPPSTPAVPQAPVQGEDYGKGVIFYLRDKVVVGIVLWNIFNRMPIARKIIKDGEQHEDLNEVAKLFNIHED

[3] = molecular target: T2, CypA R55A mutant (UniProt P62937 1-165, R55A); assay: as above
T2 construct: Cyclophilin A (CypA) with R55A; the R55A mutant corresponding to His-tagged CypA; The starting construct carried a Myc tag; also called R55A CypA mutant; R55A mutated CypA; source: prepared starting from the construct pCMV6-AC-Myc-CypA^R55A
T2 sequence (P62937 whole entry R55A): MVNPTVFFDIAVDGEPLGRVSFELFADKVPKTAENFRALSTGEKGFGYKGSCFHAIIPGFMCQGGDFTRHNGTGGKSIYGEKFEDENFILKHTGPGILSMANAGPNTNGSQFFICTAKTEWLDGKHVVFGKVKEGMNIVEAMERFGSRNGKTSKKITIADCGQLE

[4] = molecular target: T3, His-tagged Cyclophilin A (CypA) (UniProt P62937 1-165); assay: as above
T3 construct: Cyclophilin A (CypA), peptidyl-prolyl isomerase; Uniformly 15N-labelled for the NMR experiments, unlabelled elsewhere; also called CypA wild type; 15N-CypA; source: bacteria, IPTG-induced, purified (His-trap HP, size exclusion chromatography)
T3 sequence (P62937 whole entry): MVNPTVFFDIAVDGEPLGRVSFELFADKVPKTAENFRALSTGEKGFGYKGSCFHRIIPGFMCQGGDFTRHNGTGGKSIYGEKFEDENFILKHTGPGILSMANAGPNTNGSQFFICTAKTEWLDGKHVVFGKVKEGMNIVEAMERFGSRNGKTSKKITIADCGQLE

[5] = molecular target: T3, His-tagged Cyclophilin A (CypA); assay: ITC; AIF(370-394) 0.7 mM injected (20 x 2 μL) into CypA 5 μM, 25 °C, PBS 1X with 1 mM DTT, pH 7.4; single-site model; triplicate

Binder | Kd [1] | Kd [2] | Kd [3] | Kd [4] | Kd [5]
B1 | 20.7 ± 6.5 µM | 25.2 ± 5 µM | – | – | –
B2 | 87 ± 5.8 µM | 31.3 ± 2.8 µM | – | – | –
B3 | 3.1 ± 1.3 µM | 2.8 ± 0.9 µM | – | – | –
B4 | 4.6 ± 1.3 µM | 2.2 ± 0.7 µM | – | – | –
B5 | – | – | 3.1 ± 0.7 µM | 3 ± 0.6 µM | 6 µM
B6 | 34.9 ± 8.1 µM | 51.4 ± 12.2 µM | – | – | –
B7 | 268 ± 9.65 µM | 38.8 ± 4.6 µM | – | – | –
B8 | – | > 1000 µM | – | – | –
B9 | 304 ± 10.8 µM | – | – | – | –
B10 | 43 ± 6.8 µM | 27.2 ± 5.8 µM | – | – | –
